Experimental data taken from patent US20150344570A1 (published 2015).

T1: FcγRIIa R extracellular domain with C-terminal His tag (human, UniProt P12318 34-217)
T1 construct: extracellular domain; also called FcgRIIa R; 2aR; not shown: His tag at the C terminus
T1 sequence (looked up): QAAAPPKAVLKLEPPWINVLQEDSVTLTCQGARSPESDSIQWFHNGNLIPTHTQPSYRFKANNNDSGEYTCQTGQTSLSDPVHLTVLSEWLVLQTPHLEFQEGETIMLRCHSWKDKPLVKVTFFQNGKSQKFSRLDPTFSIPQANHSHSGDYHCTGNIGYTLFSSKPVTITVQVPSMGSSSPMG


The binders below were run against T1, FcγRIIa R extracellular domain with … (assay: SPR (Biacore), relative FcγRIIa R binding, GpH7-B3/GpL16-k0 = 100).
Method: Analysis of interaction between objective antibody and the FcγR was carried out using Biacore T100 (GE Healthcare). HBS-EP+ (GE Healthcare) was used as the running buffer, and the measurement temperature was set to 25° C. Chips produced by immobilizing the antigen peptide by the amine coupling method to a Series S Sencor Chip CM5 (GE Healthcare), or alternatively, chips produced by allowing preliminarily biotinylated antigen peptides to interact with and immobilize onto a Series S Sensor Chip SA (certified) (GE Healthcare) were used. Antibodies of interest were captured onto an antigen peptide-immobilized chip, and allowed to interact to each FcγR diluted with running buffer. To regenerate and repeatedly use the chip, the antibodies captured on the chip were washed off by reacting 10 mM glycine-HCl, pH 1.5.

Binder	Ho/Con_2aR
GpH7-B3 variant P238_04F/GpL16-k0 (antibody, human IgG1, kappa, homodimerized: alteration in both H chains; also called Ho Ab P238_04F) heavy: not shown light: DIVMTQSPLSLPVTPGEPASISCQASESLVHSNRNTYLHWYLQKPGQSPQLLIYKVSNRFSGVPDRFSGSGSGTDFTLKISRVEAEDVGVYYCSQNTHVPPTFGQGTKVEIERTVAAPSVFIFPPSDEQLKSGTASVVCLLNNFYPREAKVQWKVDNALQSGNSQESVTEQDSKDSTYSLSSTLTLSKADYEKHKVYACEVTHQGLSSPVTKSFNRGEC	146 % of control
GpH7-B3 variant P271_08L/GpL16-k0 (antibody, human IgG1, kappa, homodimerized: alteration in both H chains; also called Ho Ab P271_08L) heavy: not shown light: DIVMTQSPLSLPVTPGEPASISCQASESLVHSNRNTYLHWYLQKPGQSPQLLIYKVSNRFSGVPDRFSGSGSGTDFTLKISRVEAEDVGVYYCSQNTHVPPTFGQGTKVEIERTVAAPSVFIFPPSDEQLKSGTASVVCLLNNFYPREAKVQWKVDNALQSGNSQESVTEQDSKDSTYSLSSTLTLSKADYEKHKVYACEVTHQGLSSPVTKSFNRGEC	102 % of control
GpH7-B3 variant P331_02A/GpL16-k0 (antibody, human IgG1, kappa, homodimerized: alteration in both H chains; also called Ho Ab P331_02A) heavy: not shown light: DIVMTQSPLSLPVTPGEPASISCQASESLVHSNRNTYLHWYLQKPGQSPQLLIYKVSNRFSGVPDRFSGSGSGTDFTLKISRVEAEDVGVYYCSQNTHVPPTFGQGTKVEIERTVAAPSVFIFPPSDEQLKSGTASVVCLLNNFYPREAKVQWKVDNALQSGNSQESVTEQDSKDSTYSLSSTLTLSKADYEKHKVYACEVTHQGLSSPVTKSFNRGEC	102 % of control
GpH7-B3 variant P331_04F/GpL16-k0 (antibody, human IgG1, kappa, homodimerized: alteration in both H chains; also called Ho Ab P331_04F) heavy: not shown light: DIVMTQSPLSLPVTPGEPASISCQASESLVHSNRNTYLHWYLQKPGQSPQLLIYKVSNRFSGVPDRFSGSGSGTDFTLKISRVEAEDVGVYYCSQNTHVPPTFGQGTKVEIERTVAAPSVFIFPPSDEQLKSGTASVVCLLNNFYPREAKVQWKVDNALQSGNSQESVTEQDSKDSTYSLSSTLTLSKADYEKHKVYACEVTHQGLSSPVTKSFNRGEC	106 % of control
GpH7-B3 variant P331_15Y/GpL16-k0 (antibody, human IgG1, kappa, homodimerized: alteration in both H chains; also called Ho Ab P331_15Y) heavy: not shown light: DIVMTQSPLSLPVTPGEPASISCQASESLVHSNRNTYLHWYLQKPGQSPQLLIYKVSNRFSGVPDRFSGSGSGTDFTLKISRVEAEDVGVYYCSQNTHVPPTFGQGTKVEIERTVAAPSVFIFPPSDEQLKSGTASVVCLLNNFYPREAKVQWKVDNALQSGNSQESVTEQDSKDSTYSLSSTLTLSKADYEKHKVYACEVTHQGLSSPVTKSFNRGEC	105 % of control
GpH7-B3 variant P331_16H/GpL16-k0 (antibody, human IgG1, kappa, homodimerized: alteration in both H chains; also called Ho Ab P331_16H) heavy: not shown light: DIVMTQSPLSLPVTPGEPASISCQASESLVHSNRNTYLHWYLQKPGQSPQLLIYKVSNRFSGVPDRFSGSGSGTDFTLKISRVEAEDVGVYYCSQNTHVPPTFGQGTKVEIERTVAAPSVFIFPPSDEQLKSGTASVVCLLNNFYPREAKVQWKVDNALQSGNSQESVTEQDSKDSTYSLSSTLTLSKADYEKHKVYACEVTHQGLSSPVTKSFNRGEC	100 % of control
GpH7-B3 variant P331_20W/GpL16-k0 (antibody, human IgG1, kappa, homodimerized: alteration in both H chains; also called Ho Ab P331_20W) heavy: not shown light: DIVMTQSPLSLPVTPGEPASISCQASESLVHSNRNTYLHWYLQKPGQSPQLLIYKVSNRFSGVPDRFSGSGSGTDFTLKISRVEAEDVGVYYCSQNTHVPPTFGQGTKVEIERTVAAPSVFIFPPSDEQLKSGTASVVCLLNNFYPREAKVQWKVDNALQSGNSQESVTEQDSKDSTYSLSSTLTLSKADYEKHKVYACEVTHQGLSSPVTKSFNRGEC	102 % of control
GpH7-B3 variant S239_08L/GpL16-k0 (antibody, human IgG1, kappa, homodimerized: alteration in both H chains; also called Ho Ab S239_08L) heavy: not shown light: DIVMTQSPLSLPVTPGEPASISCQASESLVHSNRNTYLHWYLQKPGQSPQLLIYKVSNRFSGVPDRFSGSGSGTDFTLKISRVEAEDVGVYYCSQNTHVPPTFGQGTKVEIERTVAAPSVFIFPPSDEQLKSGTASVVCLLNNFYPREAKVQWKVDNALQSGNSQESVTEQDSKDSTYSLSSTLTLSKADYEKHKVYACEVTHQGLSSPVTKSFNRGEC	106 % of control
GpH7-B3 variant S239_10E/GpL16-k0 (antibody, human IgG1, kappa, homodimerized: alteration in both H chains; also called Ho Ab S239_10E) heavy: not shown light: DIVMTQSPLSLPVTPGEPASISCQASESLVHSNRNTYLHWYLQKPGQSPQLLIYKVSNRFSGVPDRFSGSGSGTDFTLKISRVEAEDVGVYYCSQNTHVPPTFGQGTKVEIERTVAAPSVFIFPPSDEQLKSGTASVVCLLNNFYPREAKVQWKVDNALQSGNSQESVTEQDSKDSTYSLSSTLTLSKADYEKHKVYACEVTHQGLSSPVTKSFNRGEC	122 % of control
GpH7-B3 variant S239_18N/GpL16-k0 (antibody, human IgG1, kappa, homodimerized: alteration in both H chains; also called Ho Ab S239_18N) heavy: not shown light: DIVMTQSPLSLPVTPGEPASISCQASESLVHSNRNTYLHWYLQKPGQSPQLLIYKVSNRFSGVPDRFSGSGSGTDFTLKISRVEAEDVGVYYCSQNTHVPPTFGQGTKVEIERTVAAPSVFIFPPSDEQLKSGTASVVCLLNNFYPREAKVQWKVDNALQSGNSQESVTEQDSKDSTYSLSSTLTLSKADYEKHKVYACEVTHQGLSSPVTKSFNRGEC	103 % of control
GpH7-B3 variant S267_03V/GpL16-k0 (antibody, human IgG1, kappa, homodimerized: alteration in both H chains; also called Ho Ab S267_03V) heavy: not shown light: DIVMTQSPLSLPVTPGEPASISCQASESLVHSNRNTYLHWYLQKPGQSPQLLIYKVSNRFSGVPDRFSGSGSGTDFTLKISRVEAEDVGVYYCSQNTHVPPTFGQGTKVEIERTVAAPSVFIFPPSDEQLKSGTASVVCLLNNFYPREAKVQWKVDNALQSGNSQESVTEQDSKDSTYSLSSTLTLSKADYEKHKVYACEVTHQGLSSPVTKSFNRGEC	115 % of control
GpH7-B3 variant S267_06M/GpL16-k0 (antibody, human IgG1, kappa, homodimerized: alteration in both H chains; also called Ho Ab S267_06M) heavy: not shown light: DIVMTQSPLSLPVTPGEPASISCQASESLVHSNRNTYLHWYLQKPGQSPQLLIYKVSNRFSGVPDRFSGSGSGTDFTLKISRVEAEDVGVYYCSQNTHVPPTFGQGTKVEIERTVAAPSVFIFPPSDEQLKSGTASVVCLLNNFYPREAKVQWKVDNALQSGNSQESVTEQDSKDSTYSLSSTLTLSKADYEKHKVYACEVTHQGLSSPVTKSFNRGEC	102 % of control
GpH7-B3 variant S267_09D/GpL16-k0 (antibody, human IgG1, kappa, homodimerized: alteration in both H chains; also called Ho Ab S267_09D) heavy: not shown light: DIVMTQSPLSLPVTPGEPASISCQASESLVHSNRNTYLHWYLQKPGQSPQLLIYKVSNRFSGVPDRFSGSGSGTDFTLKISRVEAEDVGVYYCSQNTHVPPTFGQGTKVEIERTVAAPSVFIFPPSDEQLKSGTASVVCLLNNFYPREAKVQWKVDNALQSGNSQESVTEQDSKDSTYSLSSTLTLSKADYEKHKVYACEVTHQGLSSPVTKSFNRGEC	167 % of control
GpH7-B3 variant S267_19Q/GpL16-k0 (antibody, human IgG1, kappa, homodimerized: alteration in both H chains; also called Ho Ab S267_19Q) heavy: not shown light: DIVMTQSPLSLPVTPGEPASISCQASESLVHSNRNTYLHWYLQKPGQSPQLLIYKVSNRFSGVPDRFSGSGSGTDFTLKISRVEAEDVGVYYCSQNTHVPPTFGQGTKVEIERTVAAPSVFIFPPSDEQLKSGTASVVCLLNNFYPREAKVQWKVDNALQSGNSQESVTEQDSKDSTYSLSSTLTLSKADYEKHKVYACEVTHQGLSSPVTKSFNRGEC	110 % of control
GpH7-B3 variant S298_08L/GpL16-k0 (antibody, human IgG1, kappa, homodimerized: alteration in both H chains; also called Ho Ab S298_08L) heavy: not shown light: DIVMTQSPLSLPVTPGEPASISCQASESLVHSNRNTYLHWYLQKPGQSPQLLIYKVSNRFSGVPDRFSGSGSGTDFTLKISRVEAEDVGVYYCSQNTHVPPTFGQGTKVEIERTVAAPSVFIFPPSDEQLKSGTASVVCLLNNFYPREAKVQWKVDNALQSGNSQESVTEQDSKDSTYSLSSTLTLSKADYEKHKVYACEVTHQGLSSPVTKSFNRGEC	101 % of control
GpH7-B3 variant S324_06M/GpL16-k0 (antibody, human IgG1, kappa, homodimerized: alteration in both H chains; also called Ho Ab S324_06M) heavy: not shown light: DIVMTQSPLSLPVTPGEPASISCQASESLVHSNRNTYLHWYLQKPGQSPQLLIYKVSNRFSGVPDRFSGSGSGTDFTLKISRVEAEDVGVYYCSQNTHVPPTFGQGTKVEIERTVAAPSVFIFPPSDEQLKSGTASVVCLLNNFYPREAKVQWKVDNALQSGNSQESVTEQDSKDSTYSLSSTLTLSKADYEKHKVYACEVTHQGLSSPVTKSFNRGEC	118 % of control
GpH7-B3 variant S337_03V/GpL16-k0 (antibody, human IgG1, kappa, homodimerized: alteration in both H chains; also called Ho Ab S337_03V) heavy: not shown light: DIVMTQSPLSLPVTPGEPASISCQASESLVHSNRNTYLHWYLQKPGQSPQLLIYKVSNRFSGVPDRFSGSGSGTDFTLKISRVEAEDVGVYYCSQNTHVPPTFGQGTKVEIERTVAAPSVFIFPPSDEQLKSGTASVVCLLNNFYPREAKVQWKVDNALQSGNSQESVTEQDSKDSTYSLSSTLTLSKADYEKHKVYACEVTHQGLSSPVTKSFNRGEC	102 % of control
GpH7-B3 variant S337_06M/GpL16-k0 (antibody, human IgG1, kappa, homodimerized: alteration in both H chains; also called Ho Ab S337_06M) heavy: not shown light: DIVMTQSPLSLPVTPGEPASISCQASESLVHSNRNTYLHWYLQKPGQSPQLLIYKVSNRFSGVPDRFSGSGSGTDFTLKISRVEAEDVGVYYCSQNTHVPPTFGQGTKVEIERTVAAPSVFIFPPSDEQLKSGTASVVCLLNNFYPREAKVQWKVDNALQSGNSQESVTEQDSKDSTYSLSSTLTLSKADYEKHKVYACEVTHQGLSSPVTKSFNRGEC	101 % of control
GpH7-B3 variant S337_07I/GpL16-k0 (antibody, human IgG1, kappa, homodimerized: alteration in both H chains; also called Ho Ab S337_07I) heavy: not shown light: DIVMTQSPLSLPVTPGEPASISCQASESLVHSNRNTYLHWYLQKPGQSPQLLIYKVSNRFSGVPDRFSGSGSGTDFTLKISRVEAEDVGVYYCSQNTHVPPTFGQGTKVEIERTVAAPSVFIFPPSDEQLKSGTASVVCLLNNFYPREAKVQWKVDNALQSGNSQESVTEQDSKDSTYSLSSTLTLSKADYEKHKVYACEVTHQGLSSPVTKSFNRGEC	103 % of control
GpH7-B3 variant S337_09D/GpL16-k0 (antibody, human IgG1, kappa, homodimerized: alteration in both H chains; also called Ho Ab S337_09D) heavy: not shown light: DIVMTQSPLSLPVTPGEPASISCQASESLVHSNRNTYLHWYLQKPGQSPQLLIYKVSNRFSGVPDRFSGSGSGTDFTLKISRVEAEDVGVYYCSQNTHVPPTFGQGTKVEIERTVAAPSVFIFPPSDEQLKSGTASVVCLLNNFYPREAKVQWKVDNALQSGNSQESVTEQDSKDSTYSLSSTLTLSKADYEKHKVYACEVTHQGLSSPVTKSFNRGEC	114 % of control
GpH7-B3 variant S337_10E/GpL16-k0 (antibody, human IgG1, kappa, homodimerized: alteration in both H chains; also called Ho Ab S337_10E) heavy: not shown light: DIVMTQSPLSLPVTPGEPASISCQASESLVHSNRNTYLHWYLQKPGQSPQLLIYKVSNRFSGVPDRFSGSGSGTDFTLKISRVEAEDVGVYYCSQNTHVPPTFGQGTKVEIERTVAAPSVFIFPPSDEQLKSGTASVVCLLNNFYPREAKVQWKVDNALQSGNSQESVTEQDSKDSTYSLSSTLTLSKADYEKHKVYACEVTHQGLSSPVTKSFNRGEC	110 % of control
